Experiment [1] has as its target T1, human sodium-dependent phosphate transporter 2B (NaPi2b) (human, UniProt O95436 1-690).
T1 construct: UniProt ID is given as 095436 [sic]; also called hNaPi2b; Hu NaPi2b
T1 sequence: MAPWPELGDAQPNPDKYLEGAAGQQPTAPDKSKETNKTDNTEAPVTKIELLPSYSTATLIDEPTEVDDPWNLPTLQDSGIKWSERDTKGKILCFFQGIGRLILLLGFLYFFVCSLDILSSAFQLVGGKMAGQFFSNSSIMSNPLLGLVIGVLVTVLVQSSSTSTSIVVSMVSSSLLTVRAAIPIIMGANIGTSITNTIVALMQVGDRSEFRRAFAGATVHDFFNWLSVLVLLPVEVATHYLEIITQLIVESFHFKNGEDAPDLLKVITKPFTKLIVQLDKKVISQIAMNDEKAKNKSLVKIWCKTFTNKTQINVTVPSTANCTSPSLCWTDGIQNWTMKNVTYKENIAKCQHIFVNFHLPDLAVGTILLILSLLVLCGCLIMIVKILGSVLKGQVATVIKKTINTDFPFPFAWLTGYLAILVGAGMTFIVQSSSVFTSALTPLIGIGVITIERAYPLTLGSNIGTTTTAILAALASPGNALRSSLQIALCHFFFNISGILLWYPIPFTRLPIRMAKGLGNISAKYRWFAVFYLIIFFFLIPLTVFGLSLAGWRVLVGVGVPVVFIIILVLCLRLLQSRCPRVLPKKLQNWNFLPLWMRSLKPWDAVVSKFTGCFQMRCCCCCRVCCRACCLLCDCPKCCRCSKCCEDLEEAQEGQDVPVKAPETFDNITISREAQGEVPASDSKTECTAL
Put plainly: flow cytometry on IGROV-1 cells (endogenous NaPi2b), 24 h at 4 C, anti-human IgG Fc AF647 detection. The method, then: (§1) Briefly, cells were seeded at 50,000 cells/well in conical-bottom 96-well plates and treated with test antibody for 24 hours at 4° C. to prevent internalization. […] Following incubation, cells were washed and stained with anti-Human IgG Fc AF647 conjugate (Jackson Immuno Research Labs, West Grove, PA; Cat. No. 109-605-098) at 4° C. for 30 min. Following incubation and washing, fluorescence was detected by flow cytometry on a BD LSRFortessa™ Cell Analyzer (BD Biosciences, Franklin Lake, NJ) with 1,000 minimum events collected per well. The AF647/APC-A GeoMean (fluorescence signal geometric mean, proportional to anti-Human AF647 binding) was calculated for the live cell population using FlowJo™ Version 10.8.1 (BD Biosciences, Franklin Lake, NJ) and plotted for each test antibody using GraphPad Prism Version 9 (GraphPad Software, San Diego, CA).
(§2) The ability of the humanized antibody variants v38591 and v29456 to bind to NaPi2b expressed on cells was assessed on endogenous NaPi2b-expressing tumor cell lines IGROV-1 (ovarian adenocarcinoma) and TOV-21G (ovarian carcinoma) by flow cytometry.
(§3) Cellular binding was performed according to methods described in Example 13.
A general note: A flow cytometer gives signals particle by particle.

Experiment [2] concerns the target T2, FcgR1A (human, UniProt P12314 16-374).
T2 construct: whole, on cells
Put plainly: Membrane Proteome Array screen, flow cytometry on HEK293T cells each expressing one of over 6000 human membrane proteins.
Method: Briefly, the study consisted of three phases: phase (1) determination of assay screening conditions, phase (2) membrane proteome array (library) screen and phase (3) protein target validation. […] In phase (3), each protein target hit from the screen stage (potential off-target interactions) was assessed in titration experiment using flow cytometry.

The target in experiment [3] is T1, human sodium-dependent phosphate …. Put plainly: flow cytometry, TOV-21G cells (endogenous NaPi2b); apparent Kd. The protocol:
as §1, §2, §3

Experiment [4] shares this target. Put plainly: flow cytometry on TOV-21G cells (endogenous NaPi2b), 24 h at 4 C, anti-human IgG Fc AF647 detection. The method, then: as §1, §2, §3
The target is the same in experiment [5]. Put plainly: flow cytometry, IGROV-1 cells (endogenous NaPi2b); apparent Kd. The protocol: as §1, §2, §3
For experiment [6] the target is unchanged. Put plainly: flow cytometry, HEK293-6e cells transfected with human NaPi2b; apparent Kd. The protocol: The binding cross-reactivity of humanized antibody variant v38591 to human NaPi2b, NaPi2a, and NaPi2c was assessed by flow cytometry using HEK293-6e transfected cells.
Following transfection, cells were seeded at 50,000 cells/well in conical-bottom 96-well plates and treated with test antibody for 24 hours at 4° C. to prevent internalization. Following incubation, cells were washed and stained with anti-Human IgG Fc AF647 conjugate (Jackson Immuno Research Labs, West Grove, PA; Cat. No. 109-605-098) or anti-Rabbit IgG F(ab″)2 AF647 conjugate (Jackson Immuno Research Labs, West Grove, PA; Cat. No. 111-605-047). Following incubation and washing, fluorescence was detected by flow cytometry on a BD LSRFortessa™ Cell Analyzer (BD Biosciences, Franklin Lake, NJ) with 1,000 minimum events collected per well. The AF647/APC-A GeoMean (fluorescence signal geometric mean, proportional to anti-Human AF647 binding) was calculated for the live cell population using FlowJo™ Version 10.8.1 (BD Biosciences, Franklin Lake, NJ) and plotted for each test antibody using GraphPad Prism Version 9 (GraphPad Software, San Diego, CA).

T2 sequence (P12314 16-374): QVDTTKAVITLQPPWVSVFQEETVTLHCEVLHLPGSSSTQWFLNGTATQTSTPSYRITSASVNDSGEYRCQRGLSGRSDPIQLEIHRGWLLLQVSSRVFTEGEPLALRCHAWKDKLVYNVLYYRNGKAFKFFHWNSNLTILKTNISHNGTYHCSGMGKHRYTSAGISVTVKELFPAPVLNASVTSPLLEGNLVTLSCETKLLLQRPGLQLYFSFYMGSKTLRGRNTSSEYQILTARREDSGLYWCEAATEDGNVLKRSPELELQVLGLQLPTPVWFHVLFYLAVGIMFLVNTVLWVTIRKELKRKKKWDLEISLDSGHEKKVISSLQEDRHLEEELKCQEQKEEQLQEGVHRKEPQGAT

B1: v38591 humanized anti-NaPi2b antibody (antibody, human IgG1, kappa)
heavy: not shown
light: DVQMTQSPSSLSASVGDRVTITCRASQDVYSYLNWYQQKPGKAVKLLIYYTSRLQSGVPSRFSGSGSGTDYTLTISSLQPEDFATYYCQQYNIFPWTFGQGTKLEIKRTVAAPSVFIFPPSDEQLKSGTASVVCLLNNFYPREAKVQWKVDNALQSGNSQESVTEQDSKDSTYSLSSTLTLSKADYEKHKVYACEVTHQGLSSPVTKSFNRGEC
notes: also called humanized v38591 anti-NaPi2b (SLC34A2) variant
B1: the entries for the “EC50 (read off the curve)” value in experiment [1] and in experiment [4] were roughly 1 nM and roughly 0.7 nM, respectively. Besides, the binding result in experiment [2] is reported as “binds”. In addition, the Kd in experiment [3] amounted to 0.74 nM; in experiment [5], 1.39 nM; in experiment [6] it was 1.68 nM.
